Results: publication PMC8367383, “A CTP-dependent gating mechanism enables ParB spreading on DNA” (eLife, 2021)

T1: ParB∆CTD-His6 (Caulobacter crescentus, UniProt B8GW30 11-254)
T1 sequence: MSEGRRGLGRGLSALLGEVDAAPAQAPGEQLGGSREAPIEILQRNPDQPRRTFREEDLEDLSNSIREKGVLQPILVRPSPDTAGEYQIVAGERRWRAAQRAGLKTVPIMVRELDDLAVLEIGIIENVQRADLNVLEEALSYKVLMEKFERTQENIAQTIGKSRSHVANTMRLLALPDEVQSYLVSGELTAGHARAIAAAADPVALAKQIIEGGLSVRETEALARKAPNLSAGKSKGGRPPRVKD


Columns and labels:
[1] = target: CTP; test: membrane-spotting assay (DRaCALA); details: highest protein concentration point (about 12.5 µM on x axis); 5 nM radiolabeled CTP α-P32, 30 µM unlabeled CTP, 1.5 µM 22 bp parS DNA; parent: est. 13; read off a plot
[2] = target: T2, C. crescentus ParB (WT); ParB-His6 (Caulobacter vibrioides, UniProt B8GW30, E102A); test: DRaCALA membrane-spotting; assay type: binding; details: labelled compound (5 nM 32P-alpha-CTP with 30 uM unlabelled CTP); 1.5 uM 22 bp parS DNA; 10 mM CaCl2, pH 8.0, room temperature
T2 construct: full length, C-terminal His6 (pET21b), made in E. coli; dimer

[3] = target: T3, C. crescentus ParB (WT); ParB-His6 (Caulobacter vibrioides, UniProt B8GW30); test: EnzChek inorganic phosphate release; assay type: biochemical; details: 0-1000 uM CTP, 1 uM ParB, 0.5 uM 22 bp parS DNA; Mg2+, pH 8.0, 25 C; rates only in figure
T3 construct: full length, C-terminal His6 (pET21b), made in E. coli; dimer

[4] = target: C. crescentus ParB (L224C I304C), dual-cysteine variant (C. crescentus) (UniProt B8GW30); test: cross-linking; BMOE double crosslinking of 8 µM dual-cysteine ParB variant ± 0.5 µM DNA (22 bp parS, circular 3 kb parS or scrambled parS plasmid) ± 1 mM CTP; denaturing polyacrylamide and agarose gels; post-treatment with Benzonase or TEV protease; protein released from gel slices of the HMW smear
[5] = target: T1, ParB∆CTD-His6; test: crystal structure; no nucleotide; BLI: 100 mM Tris-HCl pH 8.0, 100 mM NaCl, 1 mM MgCl2, 0.005% Tween 20, 22 °C, 1 µM ParB dimer (5 µM for Q35C); crosslinking: 8 µM ParB, 0.5 µM DNA, ±1 mM CTP; details: protein: recombinant; tags: C-terminal His6; chain copies: 2; blunt, self-complementary palindrome
[6] = target: the molecule itself; test: cross-linking; BMOE (1 mM) crosslinking of symmetry-related cysteines; 8 µM single-cysteine ParB variant ± 0.5 µM 22 bp parS DNA ± CTP (0-1000 µM); 10 mM Tris-HCl pH 7.4, 100 mM NaCl, 1 mM MgCl2; 5 min at room temperature; denaturing polyacrylamide gel

T2 sequence (B8GW30 whole entry E102A): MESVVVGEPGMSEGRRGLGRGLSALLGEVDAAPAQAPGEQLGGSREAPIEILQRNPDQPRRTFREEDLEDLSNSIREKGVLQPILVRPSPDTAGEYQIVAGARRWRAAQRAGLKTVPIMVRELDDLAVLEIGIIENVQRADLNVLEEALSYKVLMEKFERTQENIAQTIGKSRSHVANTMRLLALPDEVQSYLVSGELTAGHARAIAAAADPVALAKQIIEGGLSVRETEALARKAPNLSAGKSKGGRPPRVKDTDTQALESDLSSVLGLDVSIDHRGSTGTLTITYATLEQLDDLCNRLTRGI
T3 sequence (B8GW30 whole entry): as the sequence (B8GW30 whole entry E102A) above, with A102E counted along it

Molecule | response [1] [%] | also measured
C. crescentus ParB (WT) G79S | 3.5 | –
C. crescentus ParB (WT) S74A | 0.5 | –
C. crescentus ParB (WT) Q82A | 15 | –
C. crescentus ParB (WT) E102A | 24 | –
C. crescentus ParB (WT) R60A | 0.7 | –
C. crescentus ParB (WT) R139A | 1.5 | –
C. crescentus ParB (WT) E135A | 26 | –
C. crescentus ParB (WT) N136A | 0.7 | –
Nc1ccn([C@@H]2O[C@H](COP(=O)(O)OP(=O)(O)OP(=O)(O)O)[C@@H](O)[C@H]2O)c(=O)n1 [CTP] | – | DRaCALA membrane-spotting [2]: ParB (E102A) did not hydrolyze CTP (Figure 6B) but nevertheless bound CTP efficiently; EnzChek inorganic phosphate release [3]: The CTPase rates were measured at increasing concentration of CTP
C. crescentus ParB (WT) R104A | 0 | –
C. crescentus ParB (WT) Q58A | 10 | –
C. crescentus ParB (L224C I304C), dual-cysteine variant (from UniProt B8GW30 1-304) | – | stoichiometry N [4]: 2
22 bp parS (dsDNA) DNA 1: GGATGTTTCACGTGAAACATCC DNA 2: GGATGTTTCACGTGAAACATCC | – | binding result [5]: binds
C. crescentus ParB (Q35C) on a cysteine-less ParB (C297S) background (natural protein, UniProt B8GW30 1-304, looked up, ParB, Caulobacter crescentus, with the stated substitutions; pET21b construct, so probably made in E. coli; source: purified (HIS-Select Cobalt gravity flow column, PD-10)) MESVVVGEPGMSEGRRGLGRGLSALLGEVDAAPACAPGEQLGGSREAPIEILQRNPDQPRRTFREEDLEDLSNSIREKGVLQPILVRPSPDTAGEYQIVAGERRWRAAQRAGLKTVPIMVRELDDLAVLEIGIIENVQRADLNVLEEALSYKVLMEKFERTQENIAQTIGKSRSHVANTMRLLALPDEVQSYLVSGELTAGHARAIAAAADPVALAKQIIEGGLSVRETEALARKAPNLSAGKSKGGRPPRVKDTDTQALESDLSSVLGLDVSIDHRGSTGTLTITYATLEQLDDLSNRLTRGI | – | binding result [6]: binds
C. crescentus ParB (I304C) on a cysteine-less ParB (C297S) background (natural protein, UniProt B8GW30 1-304, looked up, ParB, Caulobacter crescentus, with the stated substitutions; pET21b construct, so probably made in E. coli; source: purified (HIS-Select Cobalt gravity flow column, PD-10)) MESVVVGEPGMSEGRRGLGRGLSALLGEVDAAPAQAPGEQLGGSREAPIEILQRNPDQPRRTFREEDLEDLSNSIREKGVLQPILVRPSPDTAGEYQIVAGERRWRAAQRAGLKTVPIMVRELDDLAVLEIGIIENVQRADLNVLEEALSYKVLMEKFERTQENIAQTIGKSRSHVANTMRLLALPDEVQSYLVSGELTAGHARAIAAAADPVALAKQIIEGGLSVRETEALARKAPNLSAGKSKGGRPPRVKDTDTQALESDLSSVLGLDVSIDHRGSTGTLTITYATLEQLDDLSNRLTRGC | – | binding result [6]: binds
C. crescentus ParB (L224C) on a cysteine-less ParB (C297S) background (natural protein, UniProt B8GW30 1-304, looked up, ParB, Caulobacter crescentus, with the stated substitutions; pET21b construct, so probably made in E. coli; source: purified (HIS-Select Cobalt gravity flow column, PD-10)) MESVVVGEPGMSEGRRGLGRGLSALLGEVDAAPAQAPGEQLGGSREAPIEILQRNPDQPRRTFREEDLEDLSNSIREKGVLQPILVRPSPDTAGEYQIVAGERRWRAAQRAGLKTVPIMVRELDDLAVLEIGIIENVQRADLNVLEEALSYKVLMEKFERTQENIAQTIGKSRSHVANTMRLLALPDEVQSYLVSGELTAGHARAIAAAADPVALAKQIIEGGCSVRETEALARKAPNLSAGKSKGGRPPRVKDTDTQALESDLSSVLGLDVSIDHRGSTGTLTITYATLEQLDDLSNRLTRGI | – | binding result [6]: binds
